{
  "source": "paper PMC9843812",
  "about": "“The ybcF Gene of Escherichia coli Encodes a Local Orphan Enzyme, Catabolic Carbamate Kinase” (Journal of Microbiology and Biotechnology, 2022)",
  "proteins": {"B1": {"name": "YbcF (catabolic carbamate kinase, CK; proposed AllK) (Escherichia coli K-12) (protein)", "chain": "MKTLVVALGGNALLQRGEALTAENQYRNIASAVPALARLARSYRLAIVHGNGPQVGLLALQNLAWKEVEPYPLDVLVAESQGMIGYMLAQSLSAQPQMPPVTTVLTRIEVSPDDPAFLQPEKFIGPVYQPEEQEALEAAYGWQMKRDGKYLRRVVASPQPRKILDSEAIELLLKEGHVVICSGGGGVPVTDDGAGSEAVIDKDLAAALLAEQINADGLVILTDADAVYENWGTPQQRAIRHATPDELAPFAKADGSMGPNVTAVSGYVRSRGKPAWIGALSRIEETLAGEAGTCISL"}},
  "key": {"[1]": {"substrate": "NC(=O)OP(=O)(O)O", "assay": "ATP formation measured by firefly luciferase luminescence, Michaelis-Menten / Lineweaver-Burk", "assay_type": "biochemical, Escherichia coli", "settings": "2 mM ADP fixed, CP 0-3 mM, 30 mM MgCl2, 20 mM Tris-Cl pH 8, 28 °C, 60 min, 100 nM enzyme"}, "[2]": {"substrate": "Nc1ncnc2c1ncn2[C@@H]1O[C@H](COP(=O)(O)OP(=O)(O)O)[C@@H](O)[C@H]1O", "assay": "ATP formation measured by firefly luciferase luminescence, Michaelis-Menten / Lineweaver-Burk", "assay_type": "biochemical, Escherichia coli", "settings": "2 mM CP fixed, ADP 0-3 mM, 30 mM MgCl2, 20 mM Tris-Cl pH 8, 28 °C, 60 min, 100 nM enzyme"}},
  "data": [
    {"protein": "B1", "values": [
      {"measurement": "Km", "setting": "[1]", "value": 470, "unit": "µM"},
      {"measurement": "Km", "setting": "[2]", "value": 430, "unit": "µM"}
    ]}
  ]
}
